“And” between values parts separate entries of the source, which are not always exact repeats. Identical values can stand only once.
Key:
[1] = biological target: GLP receptor; experiment: cell-based or functional assay
[2] = biological target: T1, human IL-13 (human, UniProt P35225 35-146, limits assumed, biotinylated in the binding ELISA and on the Biacore chip); experiment: 'Binding Assay' on hIL-13 as headed in Table 12; PARI LC*, reservoir sample at 3 mins
T1 construct: also called hIL-13; Hu IL-13

[3] = biological target: T1, human IL-13; experiment: 'Binding Assay' on hIL-13 as headed in Table 12; 20 mg/ml in PBS, before nebulisation
[4] = biological target: T1, human IL-13; experiment: sandwich ELISA: dAb mixed with hIL-13, capture and detection by mouse anti-human IL-13 antibodies, OD450
[5] = biological target: T1, human IL-13; experiment: Biacore, about 100 RU biotinylated human IL-13 on SA chip, dAb in flow
[6] = biological target: T1, human IL-13; experiment: 'Binding Assay' on hIL-13 as headed in Table 12; PARI LC*, reservoir sample at 29 mins
[7] = biological target: T2, cynomolgous IL-13 (cynomolgous, UniProt Q0PW92 19-132, Presumably biotinylated for capture on the streptavidin (SA) chip; biotinylation sites not stated.); experiment: cell-based or functional assay
[8] = biological target: T1, human IL-13; experiment: cell-based or functional assay
[9] = biological target: T1, human IL-13; experiment: 'Binding Assay' on hIL-13 as headed in Table 12; PARI LC*, aerosol sample at 3 mins
[10] = biological target: T1, human IL-13; experiment: binding ELISA: biotinylated human IL-13 on NeutrAvidin plate, bound dAb detected with anti-human Ig (VH specific)
[11] = biological target: T1, human IL-13; experiment: 'Binding Assay' on hIL-13 as headed in Table 12; PARI LC*, aerosol sample at 29 mins
[12] = biological target: T1, human IL-13; experiment: 'Binding Assay' on hIL-13 as headed in Table 12; PARI LC*, aerosol sample at 15 mins
[13] = biological target: T1, human IL-13; experiment: 'Binding Assay' on hIL-13 as headed in Table 12; PARI LC*, reservoir sample at 15 mins
[14] = biological target: T2, cynomolgous IL-13; experiment: cell-based or functional assay; remark: listed apart in the source
[15] = biological target: T1, human IL-13; experiment: cell-based or functional assay; remark: listed apart in the source
[16] = biological target: T2, cynomolgous IL-13; experiment: Biacore, about 100 RU cynomolgous IL-13 on SA chip, dAb in flow
[17] = biological target: T1, human IL-13; experiment: sandwich ELISA on hIL-13; 4.7 mg/mL in phosphate/PEG1000/sucrose, LC+, material remaining in cup
[18] = biological target: T1, human IL-13; experiment: sandwich ELISA on hIL-13; 2.6 mg/mL in PBS, LC+, aerosolized material
[19] = biological target: T1, human IL-13; experiment: sandwich ELISA on hIL-13; 2.6 mg/mL in PBS, E-flow, material remaining in cup
[20] = biological target: T1, human IL-13; experiment: sandwich ELISA on hIL-13; 4.7 mg/mL in phosphate/PEG1000/sucrose, E-flow, aerosolized material
[21] = biological target: T1, human IL-13; experiment: sandwich ELISA on hIL-13; 4.7 mg/mL in phosphate/PEG1000/sucrose, E-flow, material remaining in cup
[22] = biological target: T1, human IL-13; experiment: sandwich ELISA on hIL-13; 2.6 mg/mL in PBS, E-flow, aerosolized material
[23] = biological target: T1, human IL-13; experiment: sandwich ELISA on hIL-13; 2.3 mg/mL in phosphate/PEG1000/sucrose, E-flow, aerosolized material
[24] = biological target: T1, human IL-13; experiment: sandwich ELISA on hIL-13; 2.3 mg/mL in phosphate/PEG1000/sucrose, LC+, aerosolized material
[25] = biological target: T1, human IL-13; experiment: sandwich ELISA on hIL-13; 2.6 mg/mL in PBS, LC+, material remaining in cup
[26] = biological target: T1, human IL-13; experiment: sandwich ELISA on hIL-13; 2.3 mg/mL in phosphate/PEG1000/sucrose, LC+, material remaining in cup
[27] = biological target: T1, human IL-13; experiment: sandwich ELISA on hIL-13; material in 1xPBS, not nebulised
[28] = biological target: T1, human IL-13; experiment: sandwich ELISA on hIL-13; 4.7 mg/mL in phosphate/PEG1000/sucrose, LC+, aerosolized material

T2 sequence (Q0PW92 entry or part of it limits assumed, form in doubt): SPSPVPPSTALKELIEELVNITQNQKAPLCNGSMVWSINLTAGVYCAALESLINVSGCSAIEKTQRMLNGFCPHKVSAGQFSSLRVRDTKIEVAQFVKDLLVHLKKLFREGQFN

Molecule: Exendin 4 (G4S)3 DOM7h-14 fusion (DAT0115) (from UniProt P26349)
- DAT01 cell assay EC50, CHO 6CRE/luciferase reporter (sample: DAT0115 LC+ aerosol 3 mins) [1]: 0.296 nM
- DAT01 cell assay EC50, CHO 6CRE/luciferase reporter (sample: DAT0115 LC+ aerosol 15 mins) [1]: 0.316 nM
- DAT01 cell assay EC50, CHO 6CRE/luciferase reporter (sample: DAT0115 LC+ aerosol 29 mins) [1]: 0.142 nM
- DAT01 cell assay EC50, CHO 6CRE/luciferase reporter (sample: DAT0115 LC+ cup 3 mins) [1]: 0.725 nM
- DAT01 cell assay EC50, CHO 6CRE/luciferase reporter (sample: DAT0115 LC+ cup 15 mins) [1]: 0.453 nM
- DAT01 cell assay EC50, CHO 6CRE/luciferase reporter (sample: DAT0115 LC+ cup 29 mins) [1]: 0.445 nM
- DAT01 cell assay EC50, CHO 6CRE/luciferase reporter (sample: DAT0115 T0) [1]: 0.178 nM
- DAT01 cell assay EC50, CHO 6CRE/luciferase reporter (sample: DAT0115 e-Flow aerosol 3 mins) [1]: 0.798 nM
- DAT01 cell assay EC50, CHO 6CRE/luciferase reporter (sample: DAT0115 e-Flow cup 3 mins) [1]: 0.535 nM

B1: DOM10-275-78 (other)
chain: EVQLLESGGGLVQPGGSLRLSCVASGFTFDVAEMDWVRQAPGKGLEWVSTISPSRRGTYYADSVKGRFTISRDNSKNTLYLQMNSLRAEDTAVYYCAKAYTGRSLWGPGTLVTVSS
- IC50 [2]: 1.1 nM
- IC50 [3]: 1.2 nM
- EC50 [4]: 3.33 nM
- Kd [5]: 0.072 to 0.1 nM
- IC50 [6]: 1.1 nM
- HEK assay cIL-13 EC50 (HEK293 STAT6 SEAP reporter) [7]: 1.4 nM
- HEK assay hIL-13 EC50 (HEK293 STAT6 SEAP reporter, 6 ng/ml IL-13) [8]: 2.5 nM
- IC50 [9]: 1.1 nM
- EC50 [10]: 1.3 nM
- IC50 [11]: 1.1 nM
- IC50 [12]: 1 nM
- IC50 [13]: 1.2 nM
- HEK cell assay EC50, Cyno IL-13 (sample: DOM10-275-78 aerosol 3 mins) [14]: 0.99 nM
- HEK cell assay EC50, Cyno IL-13 (sample: DOM10-275-78 aerosol 15 mins) [14]: 0.95 nM
- HEK cell assay EC50, Cyno IL-13 (sample: DOM10-275-78 aerosol 29 mins) [14]: 0.74 nM
- HEK cell assay EC50, Cyno IL-13 (sample: DOM10-275-78 cup 3 mins) [14]: 1.77 nM
- HEK cell assay EC50, Cyno IL-13 (sample: DOM10-275-78 cup 15 mins) [14]: 1.52 nM
- HEK cell assay EC50, Cyno IL-13 (sample: DOM10-275-78 cup 29 mins) [14]: 0.74 nM
- HEK cell assay EC50, Cyno IL-13 (sample: DOM10-275-78 start) [14]: 0.93 nM
- HEK cell assay EC50, Hu IL-13 (sample: DOM10-275-78 aerosol 3 mins) [15]: 1.8 nM
- HEK cell assay EC50, Hu IL-13 (sample: DOM10-275-78 aerosol 15 mins) [15]: 1.01 nM
- HEK cell assay EC50, Hu IL-13 (sample: DOM10-275-78 aerosol 29 mins) [15]: 0.62 nM
- HEK cell assay EC50, Hu IL-13 (sample: DOM10-275-78 cup 3 mins) [15]: 1.45 nM
- HEK cell assay EC50, Hu IL-13 (sample: DOM10-275-78 cup 15 mins) [15]: 2.18 nM
- HEK cell assay EC50, Hu IL-13 (sample: DOM10-275-78 cup 29 mins) [15]: 0.48 nM
- HEK cell assay EC50, Hu IL-13 (sample: DOM10-275-78 start) [15]: 0.58 nM
- Kd [16]: 0.32 to 0.75 nM

B2: DOM10-53-474 (other)
chain: GVQLLESGGGLVQPGGSLRLSCAASGFTFAWYDMGWVRQAPGKGLEWVSSIDWHGEVTYYADSVKGRFTISRDNSKNTLYLQMNSLRAEDTAVYYCATAEDEPGYDYWGQGTLVTVSS
- IC50 [17]: 0.0129 nM
- IC50 [18]: 0.023 nM
- IC50 [19]: 0.0224 nM
- IC50 [20]: 0.0185 nM
- IC50 [21]: 0.0214 nM
- IC50 [22]: 0.0351 nM
- EC50 [4]: 0.057 nM
- Kd [5]: 0.028 nM
- HEK assay cIL-13 EC50 (HEK293 STAT6 SEAP reporter) [7]: 11.1 nM
- HEK assay hIL-13 EC50 (HEK293 STAT6 SEAP reporter, 6 ng/ml IL-13) [8]: 0.63 nM
- IC50 [23]: 0.0322 nM
- EC50 [10]: 1.08 nM
- IC50 [24]: 0.0348 nM
- IC50 [25]: 0.0339 nM
- IC50 [26]: 0.0317 nM
- IC50 [27]: 0.0458 nM and 0.0356 nM and 0.0289 nM and 0.0269 nM
- HEK cell assay EC50, Cyno IL-13 (sample: DOM10-53-474 standard) [14]: 15.2 nM
- HEK cell assay EC50, Hu IL-13 (sample: DOM10-53-474 standard) [15]: 0.62 nM
- Kd [16]: 2 nM
- IC50 [28]: 0.0149 nM
